Results published in patent publication US20140274782A1, “AFFINITY REAGENTS AND METHODS FOR DETECTION, PURIFICATION, AND PROTEOMIC ANALYSIS OF METHYLATED PROTEINS” (The Board of Trustees of the Leland Stanford Junior …, priority 2013, published 2014).

T1: G9a and GLP (Homo sapiens, UniProt Q96KQ7+Q9H9B1)
T1 sequence (Q96KQ7 2-1210 limits assumed): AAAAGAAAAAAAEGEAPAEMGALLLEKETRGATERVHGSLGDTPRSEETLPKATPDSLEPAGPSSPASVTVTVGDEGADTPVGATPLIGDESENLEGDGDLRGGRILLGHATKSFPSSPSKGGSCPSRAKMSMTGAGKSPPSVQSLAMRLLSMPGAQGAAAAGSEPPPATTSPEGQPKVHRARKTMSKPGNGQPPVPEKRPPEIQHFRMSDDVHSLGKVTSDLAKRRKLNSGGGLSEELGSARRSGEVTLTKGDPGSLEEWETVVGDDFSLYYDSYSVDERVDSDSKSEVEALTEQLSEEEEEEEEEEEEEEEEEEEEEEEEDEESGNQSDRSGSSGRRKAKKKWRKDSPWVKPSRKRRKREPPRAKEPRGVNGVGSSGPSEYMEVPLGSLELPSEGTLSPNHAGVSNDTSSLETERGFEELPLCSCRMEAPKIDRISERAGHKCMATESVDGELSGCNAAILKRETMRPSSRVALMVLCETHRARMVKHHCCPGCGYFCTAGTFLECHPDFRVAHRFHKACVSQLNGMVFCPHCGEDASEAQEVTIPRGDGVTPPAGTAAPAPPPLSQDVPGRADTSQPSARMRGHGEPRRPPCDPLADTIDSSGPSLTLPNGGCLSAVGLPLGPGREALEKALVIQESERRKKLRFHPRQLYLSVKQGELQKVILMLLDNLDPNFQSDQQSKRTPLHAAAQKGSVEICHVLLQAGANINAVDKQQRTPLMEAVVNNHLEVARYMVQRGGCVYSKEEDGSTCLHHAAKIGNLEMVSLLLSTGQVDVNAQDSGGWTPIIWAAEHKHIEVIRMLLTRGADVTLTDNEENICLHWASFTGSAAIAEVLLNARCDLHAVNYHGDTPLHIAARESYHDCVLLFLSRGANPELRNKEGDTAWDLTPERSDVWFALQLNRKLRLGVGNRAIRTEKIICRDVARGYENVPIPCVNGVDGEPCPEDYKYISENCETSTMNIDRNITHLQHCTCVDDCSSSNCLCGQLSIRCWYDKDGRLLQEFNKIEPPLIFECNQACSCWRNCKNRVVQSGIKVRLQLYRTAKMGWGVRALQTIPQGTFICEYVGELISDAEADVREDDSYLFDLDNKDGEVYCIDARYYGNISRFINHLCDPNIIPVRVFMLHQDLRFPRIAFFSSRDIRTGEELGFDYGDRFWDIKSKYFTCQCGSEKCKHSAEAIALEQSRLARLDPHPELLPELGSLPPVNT
T1 sequence (Q9H9B1 2-1298 limits assumed): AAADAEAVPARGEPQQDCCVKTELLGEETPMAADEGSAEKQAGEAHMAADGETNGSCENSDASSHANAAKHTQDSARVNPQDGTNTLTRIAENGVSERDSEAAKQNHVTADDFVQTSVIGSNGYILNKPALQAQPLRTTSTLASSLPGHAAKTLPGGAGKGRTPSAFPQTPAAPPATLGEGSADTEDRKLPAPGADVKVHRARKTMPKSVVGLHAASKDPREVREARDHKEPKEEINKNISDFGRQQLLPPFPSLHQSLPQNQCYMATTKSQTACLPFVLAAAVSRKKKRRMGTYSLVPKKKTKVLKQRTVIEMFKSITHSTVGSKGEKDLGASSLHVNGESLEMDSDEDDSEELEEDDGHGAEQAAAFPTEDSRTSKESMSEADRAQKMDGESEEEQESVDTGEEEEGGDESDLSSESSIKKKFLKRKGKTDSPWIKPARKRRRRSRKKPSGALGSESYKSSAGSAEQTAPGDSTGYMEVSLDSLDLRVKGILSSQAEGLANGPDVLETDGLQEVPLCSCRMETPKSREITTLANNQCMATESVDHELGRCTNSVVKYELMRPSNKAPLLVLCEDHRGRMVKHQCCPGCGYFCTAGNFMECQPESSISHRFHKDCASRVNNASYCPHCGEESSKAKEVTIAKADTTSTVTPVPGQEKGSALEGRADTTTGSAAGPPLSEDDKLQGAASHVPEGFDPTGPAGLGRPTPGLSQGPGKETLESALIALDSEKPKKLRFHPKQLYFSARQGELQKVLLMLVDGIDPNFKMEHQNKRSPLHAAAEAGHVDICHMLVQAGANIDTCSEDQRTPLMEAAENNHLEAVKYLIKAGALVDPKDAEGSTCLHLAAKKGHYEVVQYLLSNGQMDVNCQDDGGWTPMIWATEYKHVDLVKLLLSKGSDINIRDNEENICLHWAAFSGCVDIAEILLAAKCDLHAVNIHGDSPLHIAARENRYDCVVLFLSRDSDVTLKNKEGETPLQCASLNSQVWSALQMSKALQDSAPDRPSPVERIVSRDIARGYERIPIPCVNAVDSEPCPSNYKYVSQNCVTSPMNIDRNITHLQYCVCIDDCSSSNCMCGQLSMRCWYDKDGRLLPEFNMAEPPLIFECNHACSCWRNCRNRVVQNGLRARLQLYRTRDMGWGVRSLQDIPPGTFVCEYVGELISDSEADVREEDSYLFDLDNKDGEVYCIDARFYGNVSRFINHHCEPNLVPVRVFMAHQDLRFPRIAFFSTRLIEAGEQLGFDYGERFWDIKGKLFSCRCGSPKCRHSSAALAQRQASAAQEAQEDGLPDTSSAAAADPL


Assays:
[1] = test system: 3×MBT domain of L3MBTL1; experiment: Triple SILAC pull-down, 3xMBT/3xMBTD355N ratio (cytoplasmic, nuclear and chromatin fractions of 293T cells); format: binding, human; settings: SILAC ratio, pull-down 3xMBT vs 3xMBTD355N; for 3xMBT/D355N UNC Heavy: experiment with UNC0638 in heavy SILAC media; for 3xMBT/D355N UNC Light: experiment with UNC0638 in light SILAC media;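 as to all read-outs here: proteins quantified with MaxQuant, requiring at least two unique peptides and quantification in both label directions, normalized to the mean of proteins from a digested loading control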
[2] = target: T1, G9a and GLP; experiment: Triple SILAC pull-down after UNC0638 treatment of 293T cells, DMSO/UNC0638 ratio of protein captured by 3×MBT; format: cell-based; design: endogenous in cells; host or cells: HEK 293T; settings: for Relative to UNC0638 UNC Heavy / Relative to UNC0638 UNC Light: SILAC ratio DMSO/UNC0638 of protein pulled down with 3xMBT; for Relative to UNC0638 UNC Heavy: UNC0638 in heavy SILAC media; for Relative to UNC0638 UNC Light: UNC0638 in light SILAC media; for Relative to UNC0638 Average: average of UNC Light and UNC Heavy experiments;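 as to all read-outs here: mass spectrometry (Q-Exactive) SILAC quantitation, DMSO/UNC0638 ratio computed after subtracting 3×MBTD355N mutant pull-down background, only proteins with at least twofold 3×MBT over mutant signal considered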

Molecule | 3xMBT/D355N UNC Heavy [1] [log base 2] | 3xMBT/D355N UNC Light [1] [log base 2] | Relative to UNC0638 UNC Heavy [2] [log base 2] | Relative to UNC0638 UNC Light [2] [log base 2] | Relative to UNC0638 Average [2] [log base 2]
PPP1R10 (protein, UniProt Q96QC0 1-940, looked up) Serine/threonine-protein …: MGSGPIDPKELLKGLDSFLNRDGEVKSVDGISKIFSLMKEARKMVSRCTYLNILLQTRSPEILVKFIDVGGYKLLNNWLTYSKTTNNIPLLQQILLTLQHLPLTVDHLKQNNTAKLVKQLSKSSEDEELRKLASVLVSDWMAVIRSQSSTQPAEKDKKKRKDEGKSRTTLPERPLTEVKAETRAEEAPEKKREKPKSLRTTAPSHAKFRSTGLELETPSLVPVKKNASTVVVSDKYNLKPIPLKRQSNVAAPGDATPPAEKKYKPLNTTPNATKEIKVKIIPPQPMEGLGFLDALNSAPVPGIKIKKKKKVLSPTAAKPSPFEGKTSTEPSTAKPSSPEPAPPSEAMDADRPGTPVPPVEVPELMDTASLEPGALDAKPVESPGDPNQLTRKGRKRKSVTWPEEGKLREYFYFELDETERVNVNKIKDFGEAAKREILSDRHAFETARRLSHDNMEEKVPWVCPRPLVLPSPLVTPGSNSQERYIQAEREKGILQELFLNKESPHEPDPEPYEPIPPKLIPLDEECSMDETPYVETLEPGGSGGSPDGAGGSKLPPVLANLMGSMGAGKGPQGPGGGGINVQEILTSIMGSPNSHPSEELLKQPDYSDKIKQMLVPHGLLGPGPIANGFPPGGPGGPKGMQHFPPGPGGPMPGPHGGPGGPVGPRLLGPPPPPRGGDPFWDGPGDPMRGGPMRGGPGPGPGPYHRGRGGRGGNEPPPPPPPFRGARGGRSGGGPPNGRGGPGGGMVGGGGHRPHEGPGGGMGNSSGHRPHEGPGGGMGSGHRPHEGPGGSMGGGGGHRPHEGPGGGISGGSGHRPHEGPGGGMGAGGGHRPHEGPGGSMGGSGGHRPHEGPGHGGPHGHRPHDVPGHRGHDHRGPPPHEHRGHDGPGHGGGGHRGHDGGHSHGGDMSNRPVCRHFMMKGNCRYENNCAFYHPGVNGPPLP | 4.73 | 2.57 | 0.36 | 0.37 | 0.36
SRP68 (protein, UniProt Q9UHB9 1-627, looked up) Signal recognition particle …: MAAEKQVPGGGGGGGSGGGGGSGGGGSGGGRGAGGEENKENERPSAGSKANKEFGDSLSLEILQIIKESQQQHGLRHGDFQRYRGYCSRRQRRLRKTLNFKMGNRHKFTGKKVTEELLTDNRYLLLVLMDAERAWSYAMQLKQEANTEPRKRFHLLSRLRKAVKHAEELERLCESNRVDAKTKLEAQAYTAYLSGMLRFEHQEWKAAIEAFNKCKTIYEKLASAFTEEQAVLYNQRVEEISPNIRYCAYNIGDQSAINELMQMRLRSGGTEGLLAEKLEALITQTRAKQAATMSEVEWRGRTVPVKIDKVRIFLLGLADNEAAIVQAESEETKERLFESMLSECRDAIQVVREELKPDQKQRDYILEGEPGKVSNLQYLHSYLTYIKLSTAIKRNENMAKGLQRALLQQQPEDDSKRSPRPQDLIRLYDIILQNLVELLQLPGLEEDKAFQKEIGLKTLVFKAYRCFFIAQSYVLVKKWSEALVLYDRVLKYANEVNSDAGAFKNSLKDLPDVQELITQVRSEKCSLQAAAILDANDAHQTETSSSQVKDNKPLVERFETFCLDPSLVTKQANLVHFPPGFQPIPCKPLFFDLALNHVAFPPLEDKLEQKTKSGLTGYIKGIFGFRS | 2.41 | 3.28 | −0.08 | 0.76 | 0.34
HNRNPH3 (protein, UniProt P31942 1-346, looked up) Heterogeneous nuclear …: MDWVMKHNGPNDASDGTVRLRGLPFGCSKEEIVQFFQGLEIVPNGITLTMDYQGRSTGEAFVQFASKEIAENALGKHKERIGHRYIEIFRSSRSEIKGFYDPPRRLLGQRPGPYDRPIGGRGGYYGAGRGSMYDRMRRGGDGYDGGYGGFDDYGGYNNYGYGNDGFDDRMRDGRGMGGHGYGGAGDASSGFHGGHFVHMRGLPFRATENDIANFFSPLNPIRVHIDIGADGRATGEADVEFVTHEDAVAAMSKDKNNMQHRYIELFLNSTPGGGSGMGGSGMGGYGRDGMDNQGGYGSVGRMGMGNNYSGGYGTPDGLGGYGRGGGGSGGYYGQGGMSGGGWRGMY | 1.94 | 2.57 | 0.28 | 0.39 | 0.34
DBR1 (protein, UniProt Q9UK59 1-544, looked up) Lariat debranching enzyme: MRVAVAGCCHGELDKIYETLALAERRGPGPVDLLLCCGDFQAVRNEADLRCMAVPPKYRHMQTFYRYYSGEKKAPVLTLFIGGNHEASNHLQELPYGGWVAPNIYYLGLAGVVKYRGVRIGGISGIFKSHDYRKGHFECPPYNSSTIRSIYHVRNIEVYKLKQLKQPIDIFLSHDWPRSIYHYGNKKQLLKTKSFFRQEVENNTLGSPAASELLEHLKPTYWFSAHLHVKFAALMQHQAKDKGQTARATKFLALDKCLPHRDFLQILEIEHDPSAPDYLEYDIEWLTILRATDDLINVTGRLWNMPENNGLHARWDYSATEEGMKEVLEKLNHDLKVPCNFSVTAACYDPSKPQTQMQLIHRINPQTTEFCAQLGIIDINVRLQKSKEEHHVCGEYEEQDDVESNDSGEDQSEYNTDTSALSSINPDEIMLDEEEDEDSIVSAHSGMNTPSVEPSDQASEFSASFSDVRILPGSMIVSSDDTVDSTIDREGKPGGTVESGNGEDLTKVPLKRLSDEHEPEQRKKIKRRNQAIYAAVDDDDDDAA | 3.11 | 2.56 | 0.54 | 0.13 | 0.33
DUT (protein, UniProt P33316 70-252, looked up) Deoxyuridine 5'-triphosphate …: ASTVGAAGWKGELPKAGGSPAPGPETPAISPSKRARPAEVGGMQLRFARLSEHATAPTRGSARAAGYDLYSAYDYTIPPMEKAVVKTDIQIALPSGCYGRVAPRSGLAAKHFIDVGAGVIDEDYRGNVGVVLFNFGKEKFEVKKGDRIAQLICERIFYPEIEEVQALDDTERGSGGFGSTGKN | 1.63 | 2.37 | 0.62 | 0.04 | 0.33
